{
  "source": "paper PMC3139367",
  "about": "(Journal of molecular biology, 2011)",
  "molecules": {"B1": {"name": "Gal4-HBZ-AD wt (Gal4-DBD aa 1-147 fused to the N-terminus of HBZ-AD aa 1-77) (domain or fragment)", "chain": "MAASGLFRCLPVSCPEDLLVEELVDGLLSLEEELKDKEEEEAVLDGLLSLEEESRGRLRRGPPGEKAPPRGETHRDR"}, "B2": {"name": "Gal4-HBZ-Mut-AD1 (domain or fragment)", "chain": "B1 chain with L27A, L28A"}, "B3": {"name": "HBZ-AD wt (aa 1-77, without the Gal4-DBD fusion) (domain or fragment)", "chain": "B1 chain"}, "B4": {"name": "Gal4-HBZ-Mut-AD2 (domain or fragment)", "chain": "B1 chain with L47A, L48A"}},
  "key": {"p300/CBP KIX": {"biological_target": "p300/CBP KIX (UniProt Q92793)", "sequence (Q92793 587-666)": "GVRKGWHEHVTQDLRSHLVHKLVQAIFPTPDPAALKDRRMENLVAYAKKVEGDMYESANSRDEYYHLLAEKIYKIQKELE", "conditions": "cited from earlier work"}, "[1]": {"biological_target": "T1, GST-KIX (aa 588-683, from mouse CBP) (mouse, UniProt P45481 588-683)", "T1 sequence (P45481 588-683)": "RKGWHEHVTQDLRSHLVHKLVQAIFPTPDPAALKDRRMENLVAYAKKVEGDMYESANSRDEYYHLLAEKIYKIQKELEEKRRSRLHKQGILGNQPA", "assay": "native gel or EMSA"}, "[2]": {"biological_target": "T1, GST-KIX (aa 588-683, from mouse CBP)", "assay": "native gel or EMSA", "remark": "listed apart in the source"}, "[3]": {"biological_target": "untagged KIX (aa 587-679, from mouse CBP) (mouse, UniProt P45481 587-679)", "sequence (P45481 587-679)": "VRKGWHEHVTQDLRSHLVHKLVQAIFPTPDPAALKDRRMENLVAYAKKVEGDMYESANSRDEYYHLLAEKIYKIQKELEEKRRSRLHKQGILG", "assay": "cross-linking"}},
  "note": "Substitutions are numbered along the chain they refer to. Like-named read-outs stand apart in the source and are kept apart here.",
  "data": [
    {"molecule": "CREB (from UniProt P16220)", "values": [
      {"measurement": "Kd", "setting": "p300/CBP KIX", "result": 108000, "unit": "nM"}
    ]},
    {"molecule": "B1", "values": [
      {"measurement": "Kd", "setting": "[1]", "result": "3 ± 0.5", "unit": "nM"}
    ]},
    {"molecule": "B2", "values": [
      {"measurement": "Kd", "setting": "[2]", "result": 800, "unit": "nM"}
    ]},
    {"molecule": "B3", "values": [
      {"measurement": "stoichiometry N", "setting": "[3]", "result": 1}
    ]},
    {"molecule": "B4", "values": [
      {"measurement": "Kd", "setting": "[2]", "result": 180, "unit": "nM"}
    ]}
  ]
}
